Data from PMC11463350.

Biological target: T1, zPol θ (zebrafish DNA polymerase theta, polymerase domain) (Danio rerio (zebrafish), UniProt F1Q4P4 1798-2576)
T1 sequence: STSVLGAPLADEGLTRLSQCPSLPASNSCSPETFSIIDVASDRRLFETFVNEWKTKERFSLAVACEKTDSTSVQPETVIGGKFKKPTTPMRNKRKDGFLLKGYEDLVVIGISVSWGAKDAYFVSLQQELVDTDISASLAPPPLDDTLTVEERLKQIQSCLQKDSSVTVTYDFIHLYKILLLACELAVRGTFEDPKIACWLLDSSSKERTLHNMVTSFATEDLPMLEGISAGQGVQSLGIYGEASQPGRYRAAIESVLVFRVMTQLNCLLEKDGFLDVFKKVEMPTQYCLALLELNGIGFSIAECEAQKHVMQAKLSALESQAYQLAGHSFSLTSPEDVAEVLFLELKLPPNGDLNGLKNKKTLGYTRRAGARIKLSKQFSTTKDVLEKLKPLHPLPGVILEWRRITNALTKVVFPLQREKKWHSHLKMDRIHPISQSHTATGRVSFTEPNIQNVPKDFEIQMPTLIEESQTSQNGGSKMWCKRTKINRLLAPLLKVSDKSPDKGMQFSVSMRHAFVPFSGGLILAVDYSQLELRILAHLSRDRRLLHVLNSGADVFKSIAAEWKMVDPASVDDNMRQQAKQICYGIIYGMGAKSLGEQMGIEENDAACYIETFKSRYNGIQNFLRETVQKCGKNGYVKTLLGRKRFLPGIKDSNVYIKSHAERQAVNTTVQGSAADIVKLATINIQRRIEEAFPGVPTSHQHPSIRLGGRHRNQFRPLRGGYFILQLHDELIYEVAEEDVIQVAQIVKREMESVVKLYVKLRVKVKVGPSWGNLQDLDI
Assay: EMSA

B1: 25/40 undamaged DNA substrate (dsDNA)
DNA 1: TTTGCCTTGACCATGTAACAGAGAG
DNA 2: TCTCTTCTCTCACTCACGCTCTCTGTTACATGGTCAAGGC
- Kd: ~19.8 nM
